From patent publication US20250135039A1, “INHIBITOR-RESISTANT MGMT MODIFICATIONS AND MODIFICATION OF MGMT-ENCODING NUCLEIC ACIDS” (Ensoma, Inc., priority 2022, published 2025)

B1: Y158H: MGMT polypeptide with mutation Y158H (protein)
chain: MDKDCEMKRTTLDSPLGKLELSGCEQGLHEIKLLGKGTSAADAVEVPAPAAVLGGPEPLMQCTAWLNAYFHQPEAIEEFPVPALHHPVFQQESFTRQVLWKLLKVVKFGEVISYQQLAALAGNPKAARAVGGAMRGNPVPILIPCHRVVCSSGAVGNHSGGLAVKEWLLAHEGHRLGKPGLGGSSGLAGAWLKGAGATSGSPPAGRN
B2: G160D: MGMT polypeptide with mutation G160D (protein)
chain: MDKDCEMKRTTLDSPLGKLELSGCEQGLHEIKLLGKGTSAADAVEVPAPAAVLGGPEPLMQCTAWLNAYFHQPEAIEEFPVPALHHPVFQQESFTRQVLWKLLKVVKFGEVISYQQLAALAGNPKAARAVGGAMRGNPVPILIPCHRVVCSSGAVGNYSDGLAVKEWLLAHEGHRLGKPGLGGSSGLAGAWLKGAGATSGSPPAGRN
B3: S159I: MGMT polypeptide with mutation S159I (protein)
chain: MDKDCEMKRTTLDSPLGKLELSGCEQGLHEIKLLGKGTSAADAVEVPAPAAVLGGPEPLMQCTAWLNAYFHQPEAIEEFPVPALHHPVFQQESFTRQVLWKLLKVVKFGEVISYQQLAALAGNPKAARAVGGAMRGNPVPILIPCHRVVCSSGAVGNYIGGLAVKEWLLAHEGHRLGKPGLGGSSGLAGAWLKGAGATSGSPPAGRN
B4: G160A: MGMT polypeptide with mutation G160A (protein)
chain: MDKDCEMKRTTLDSPLGKLELSGCEQGLHEIKLLGKGTSAADAVEVPAPAAVLGGPEPLMQCTAWLNAYFHQPEAIEEFPVPALHHPVFQQESFTRQVLWKLLKVVKFGEVISYQQLAALAGNPKAARAVGGAMRGNPVPILIPCHRVVCSSGAVGNYSAGLAVKEWLLAHEGHRLGKPGLGGSSGLAGAWLKGAGATSGSPPAGRN
B5: S159Y: MGMT polypeptide with mutation S159Y (protein)
chain: MDKDCEMKRTTLDSPLGKLELSGCEQGLHEIKLLGKGTSAADAVEVPAPAAVLGGPEPLMQCTAWLNAYFHQPEAIEEFPVPALHHPVFQQESFTRQVLWKLLKVVKFGEVISYQQLAALAGNPKAARAVGGAMRGNPVPILIPCHRVVCSSGAVGNYYGGLAVKEWLLAHEGHRLGKPGLGGSSGLAGAWLKGAGATSGSPPAGRN
B6: S159F: MGMT polypeptide with mutation S159F (protein)
chain: MDKDCEMKRTTLDSPLGKLELSGCEQGLHEIKLLGKGTSAADAVEVPAPAAVLGGPEPLMQCTAWLNAYFHQPEAIEEFPVPALHHPVFQQESFTRQVLWKLLKVVKFGEVISYQQLAALAGNPKAARAVGGAMRGNPVPILIPCHRVVCSSGAVGNYFGGLAVKEWLLAHEGHRLGKPGLGGSSGLAGAWLKGAGATSGSPPAGRN
B7: Y158W: MGMT polypeptide with mutation Y158W (protein)
chain: MDKDCEMKRTTLDSPLGKLELSGCEQGLHEIKLLGKGTSAADAVEVPAPAAVLGGPEPLMQCTAWLNAYFHQPEAIEEFPVPALHHPVFQQESFTRQVLWKLLKVVKFGEVISYQQLAALAGNPKAARAVGGAMRGNPVPILIPCHRVVCSSGAVGNWSGGLAVKEWLLAHEGHRLGKPGLGGSSGLAGAWLKGAGATSGSPPAGRN
B8: Y158M: MGMT polypeptide with mutation Y158M (protein)
chain: MDKDCEMKRTTLDSPLGKLELSGCEQGLHEIKLLGKGTSAADAVEVPAPAAVLGGPEPLMQCTAWLNAYFHQPEAIEEFPVPALHHPVFQQESFTRQVLWKLLKVVKFGEVISYQQLAALAGNPKAARAVGGAMRGNPVPILIPCHRVVCSSGAVGNMSGGLAVKEWLLAHEGHRLGKPGLGGSSGLAGAWLKGAGATSGSPPAGRN
B9: S159W: MGMT polypeptide with mutation S159W (protein)
chain: MDKDCEMKRTTLDSPLGKLELSGCEQGLHEIKLLGKGTSAADAVEVPAPAAVLGGPEPLMQCTAWLNAYFHQPEAIEEFPVPALHHPVFQQESFTRQVLWKLLKVVKFGEVISYQQLAALAGNPKAARAVGGAMRGNPVPILIPCHRVVCSSGAVGNYWGGLAVKEWLLAHEGHRLGKPGLGGSSGLAGAWLKGAGATSGSPPAGRN

Tested on: U251 human glioblastoma cell line
Assay: in vitro FM-HCR assay of MGMT activity (mPlum O^6MeG reporter plasmid)
Format: cell-based
Conditions: for Reporter expression (%) mean, O^6BG: 100 μM O^6BG; for Reporter expression (%) mean, O^6BG / Reporter expression (%) mean, DMSO: U251 cells, flow cytometry 24 h after transfection, damaged/undamaged reporter, inversely related to MGMT activity; for Reporter expression (%) mean, DMSO: 0.1% DMSO; for MGMT activity (a.u.) DMSO / MGMT activity (% of WT) DMSO: DMSO condition; for MGMT activity (a.u.) DMSO / MGMT activity (a.u.) O^6BG: determined from percent reporter expression; for MGMT activity (% of WT) DMSO / MGMT activity (% of WT) O^6BG: relative to wild-type MGMT in same condition; for Relative MGMT activity (%): MGMT activity (a.u.) in O^6BG divided by DMSO x 100, higher values indicate resistance; for MGMT activity (a.u.) O^6BG / MGMT activity (% of WT) O^6BG: O^6BG condition; for Ratio percent reporter expression (O^6BG/DMSO): lower values indicate resistance to O^6BG; for O^6BG resistance relative to WT (%): percentage difference in relative MGMT activity between variant and wild-type MGMT
Outline: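 U251 cells transfected with MGMT variant plasmid, mPlum O^6MeG reporter (or undamaged mPlum plasmid) and BFP control, in 100 μM O^6BG or 0.1% DMSO; flow cytometry at 24 h. mPlum count×intensity normalized to BFP; percent reporter expression = damaged/undamaged ×100, inversely related to MGMT activity.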

Molecule | Reporter expression (%) mean, O^6BG [%] | Reporter expression (%) mean, DMSO [%] | MGMT activity (a.u.) DMSO [a.u.] | MGMT activity (% of WT) DMSO | Relative MGMT activity (%) | MGMT activity (a.u.) O^6BG [a.u.] | MGMT activity (% of WT) O^6BG | Ratio percent reporter expression (O^6BG/DMSO) | O^6BG resistance relative to WT (%)
B1 | 30.3 | 23.3 | 4.29 | 79.3 % of WT | 76.9 | 3.30 | 230.8 % of WT | 1.30 | 191.1
B2 | 72.8 | 23.0 | 4.35 | 80.4 % of WT | 31.6 | 1.37 | 96.2 % of WT | 3.16 | 19.6
B3 | 40.3 | 18.0 | 5.56 | 102.8 % of WT | 44.6 | 2.48 | 173.6 % of WT | 2.24 | 68.9
B4 | 74.5 | 15.5 | 6.45 | 119.4 % of WT | 20.8 | 1.34 | 94.0 % of WT | 4.81 | −21.3
B5 | 142.7 | 26.0 | 3.85 | 71.2 % of WT | 18.2 | 0.70 | 49.1 % of WT | 5.49 | −31.0
B6 | 102.7 | 23.0 | 4.35 | 80.4 % of WT | 22.4 | 0.97 | 68.2 % of WT | 4.46 | −15.2
B7 | 86.7 | 26.0 | 3.85 | 71.2 % of WT | 30.0 | 1.15 | 80.8 % of WT | 3.33 | 13.5
B8 | 60.0 | 47.7 | 2.10 | 38.8 % of WT | 79.4 | 1.67 | 116.7 % of WT | 1.26 | 200.6
B9 | 108.0 | 31.3 | 3.19 | 59.0 % of WT | 29.0 | 0.93 | 64.8 % of WT | 3.45 | 9.8
